assay: soluble on expression in E. coli; label from the status in PepcDB or PDB records

| Sequence | soluble on expression in E. coli |
| --- | --- |
| MGSDKIHHHHHHMFKPQGLYDYICQQWQEEILPSLCDYIKIPNKSPHFDAKWEEHGYMEQAVNHIANWCKSHAPKGMTLEIVRLKNRTPLLFMEIPGQIDDTVLLYGHLDKQPEMSGWSDDLHPWKPVLKNGLLYGRGGADDGYSAYASLTAIRALEQQGLPYPRCILIIEACEESGSYDLPFYIELLKERIGKPSLVICLDSGAGNYEQLWMTTSLRGNLVGKLTVELINEGVHSGSASGIVADSFRVARQLISRIEDENTGEIKLPQLYCDIPDERIKQAKQCAEILGEQVYSEFPWIDSAKPVIQDKQQLILNRTWRPALTVTGADGFPAIADAGNVMRPVTSLKLSMRLPPLVDPEAASVAMEKALTQNPPYNAKVDFKIQNGGSKGWNAPLLSDWLAKAASEASMTYYDKPAAYMGEGGTIPFMSMLGEQFPKAQFMITGVLGPHSNAHGPNEFLHLDMVKKLTSCVSYVLYSFSQKK | not soluble |
| SASHIVGYPRMGPKRELKFALESFWDGKSSAEDLEKVATDLRASIWKQMADAGIKYIPSNTFSYYDQVLDTTAMLGAVPGRYSWTGGEIGFSTYFSMARGNATVPAMEMTKWFDTNYHFIVPELGPNTKFSYSSHKAVNEYKEAKALGVDTVPVLVGPVSYLLLSKPAKGVEKSFALLSLLSSILPVYKEVIAELKAAGATWIQFDEPTLVLDLDSHQLAAFSAAYTELESALSGLNVLIETYFADIPAESYKTLTSLNSVTAYGFDLIRGSKTLDLVKSAGFPSGKYLFAGVVDGRNIWADDLAASLTTLESLEAIVGKDKLVVSTSCSLMHTAVDLVNETKLDSEIKSWLAFAAQKVVEVNALAKALAGQKDEAYFAANTAAQASRRSSPRVTNEEVQKAAAALRGSDHRRATNVSARLDAQQKKLNLPVLPTTTIGSFPQTVELRRVRREYKAKKISEDEYVSAIKEEISKVVKIQEELDIDVLVHGEPERNDMVEYFGEQLSGFAFTANGWVQSYGSRCVKPPIIYGDVSRPNAMTVFWSKMAQSMTSRPMKGMLTGPVTILNWSFVRNDQPRFETCYQIALAIKKEVEDLEAGGIQVIQIDEAALREGLPLRKAEHAFYLDWAVHSFRITNCGVQDTTQIHTHMCYSNFNDIIHSIINMDADVITIENSRSDEKLLSVFREGVKYGAGIGPGVYDIHSPRIPSTEEIADRINKMLAVLDTNILWVNPDCGLKTRKYTEVKPALTNMVLAAKLIRTQLASAK | soluble |
| MGSDKIHHHHHHMKKISYIFASILLTASLSGCNDFLDVTPSDQYSDASVFTSTEGAQQVLIGAYDWFTNGHYAHYTNQYIFFMPDVMADDAMVNSTGNYNRFVSPYQYSITPSSTYSVDPWIGCYSLIDNCNAILDNLETLPESSERNRIEGESLALRTYAYHYLIRMYAKPVNKYPDNPGVILRLTSSTTDIPRSTVKDCYVQMVNDIEKACTLLTGTSSSSKCYITEQAAHGIAARIYLDLGDYTNGTSHANKALSEITLMSKADYKNKFCENNTETIWYFTCTSTDKQSFLSLPAFWYYCDQDSTYVKDGYSSLGVAKELIDIFDDTDIRKTLFVKIDGKYYKRNGSYVTCKINSRKNDDSDGTKGSGTVAFAEGDYNMMRGSEMYLIIAELAADNNHEDEALAALNKVREARGISAYSGTGDVLKTEIQNERRRELFAEGHRLFDLKRRDLPMDRSNLTLDWSRVGLIPAGSDKLEMPIPQNEIDANGALTIADQNPAYK | not soluble |
| MASASRLPPLPALRDFIHMYRLRAKKILSQNYLMDMNITRKIAKHAKVIEKDWVIEIGPGPGGITRAILEAGASRLDVVEIDNRFIPPLQHLAEAADSRMFIHHQDALRTEIGDIWKNETARPESVDWHDSNLPAMHVIGNLPFNIASPLIIKYLRDMSYRRGVWQYGRVPLTLTFQLEVAKRLCSPIACDTRSRISIMSQYVAEPKMVFQISGSCFVPRPQVDVGVVRFVPRKTPLVNTSFEVLEKVCRQVFHYRQKYVTKGLKTLYPEELEDELSDDLLKKCRIDPTTTSIRLGIEQFADLAEGYNEQCIRYPGLFLYDYTNKLHNLEDLSKEPNALPPPVPIFAPAPTIDSADNTWSLKNFNCS | not soluble |
| MTENAPKFKQISAEIEKKIRDGLYVSAQKLPSEYDLAKEYNCSRLTIRKAIDDLIRKNILVKRHGKGSYVMSQAKIQSGRAGLQGFTEAAKAYGKKSQTEVISFEEVVHPAEKIREALQVGKNEAIYELIRRRMLDGEPMTVEKIYLPQAYVQGHTKQDFEGSLFCLIEKNVEIAYSHQEIEAILVEAEISELLNVPVGQPLLQVHSITYALDATPILYDVSLYRADRYTFKNTLTRYSPSENNQVELGGSWNE | not soluble |
| MNEKVFRDPVHTYIHVNNQVIYDLINTKEFQRLRRIKQTSTTSFTFHGAEHS | not soluble |
| MSLTDSFTVRSIEGVCFRYPLATPVVTSFGKMLNRPAVFVRVVDEDGVEGWGEAWSNFPAPGAEHRARLINEVLAPGLVGRKLENPAQAFEVLSKGTEVLALQCGEPGPFAQAISGIDLALWDLFARRRNLPLWRLLGGQSSKIKVYASGINPGGAAQTAEAALKRGHRALKLKVGFGAETDIANLSALLTIVGAGMLAADANQGWSVDQALEMLPRLSEFNLRWLEEPIRADRPREEWRKLRANAKMPIAAGENISSVEDFEAALGDDVLGVIQPDIAKWGGLTVCVELARQILRVGKTFCPHYLGGGIGLLASAHLLAAVGRDGWLEVDANDNPLRDLFCGPVADVREGTIELNQNPGLGIVPDLSAIERYRSIEGHHHHHH | not soluble |
| MGSDKIHHHHHHMVARRRLDAELVRRKIARSREHAVEMIRGRRVFVAGMLALKPATVVEPEVSIRVEEDASEDWASRGAHKLLGALESFEPLGLKVKGRRVLDAGASTGGFTDVLLRREASEVVAVDVGYGQLIWRLQNDDRVRVVDRTNIRYMTLEDTGGECDMMVGDLSFISLKLTLPAIAKVLSDGADLLPMVKPQFEVGKDRLGSGGVVRSPELRAEVTADVAKFAATLGLSLKHVVASPLPGPSGNVEYFLWLVKDGGASMPDDQQLSAMIDTAVKEGPQ | not soluble |
| AHHHHHHGSKILAIAPNISRPYLGPAAVVHNTLKGFIKINKELEREDIEITFLSINDKIKSKKLTDNINIIGTKRFPPVTFTGEIQALFVSRKLEKPDLVHSHDLYEIFPWILKKIPTIFTLHGIVWKEKMFTKSLYAKLWYYLYEKRLRAYHKKFTKFVAISP | not soluble |
| MSVYTTAQLLAVNEKKFKFDPLFLRIFFRETYPFSTEKVYLSQIPGLVNMALYVSPIVSGKVIRSRGGSTSEFTPGYVKPKHEVNPLMMTLRLPDEDPQNVADPVYRRRRIILQNMKDEELAIAQVEEKQAVSAVLSGKYTMTGEAFEPVEVDMGRSAGNNIVQAGAAAWSTRDKETYDPTDDIEAYALNARGVVNIIVFDPKGWALFRSFKAVEKKLDTRRGSNSELETAVKDLGMAVSYKGMFGDVAIVVYSGQYVENDVKKNYLPDLTMVLGNTQARGLRTYGCILDADAQREGIDAST | not soluble |
| MGSDKIHHHHHHMKAMAMTPKPTAAIVGMGDAYASMQDRKDPIQLAVAATHKALADAGITKDQVDAVFTGRSPWADKRSQWSNIFCSHMHMPVTITSEITMHGAGLNATVAMAAQMIAAGRAQYVLCLQSDATELFVDAVAMGAEADADPQFEIPYGPTIPALYAQAACRYFHEFGITEEDLADVAIANQSWAMHHPHAAKARFGSIDRAKVLSSPYVATPLRRWMCSTWGGGTGGALVVTSVDNARTAQDPVYVMGYGSATTHEYLGDRMNMRRCRYPSLGAFPNLTHTATAEAARQAYESSGLTPADIDMAQISVNFAHMGPLIMEDLGFAAKGRGMDLYRAGRTGVDGDLPIDTNGGWLSFGQPGISCNMDSYAEAVRQLRGNALGRAPARRPRTVLVQGSGGMLAAGSVTILASEL | not soluble |
| MLNDGEVTPSRHEILSMVKKHSKSLGKTSLDEQDASDVEMDSNFWHGVFDVYFVRCMESRRRQDDDLLFFVRKLSCKSYGLTENEDAPAPYFVRRWAPKLDELLGESLAEVDWRKSFYLNMIAHTSFTVTVAICSNEALKTYQGSKDTKLSPIYKVVKTVYASPSRVNFHLDSKKEVETTPAYPEICFAVDDFDSTFDAVVLTDKDHCYCVLLNSHDGAAFPSATVKDSSDSNTNADPRTVKDPKVTLFSGFVSYQMVREAYEGGRNRFGSLLSLGHITGKADRLYMRGPGGRGEVEVAVSGVVDQSQVVLGPVSPMSSKKSIDLGSIFRKAASVASVAAKHAIAAATASYDEDEMFPLKCCLMSISLPWDTIAHDLLFKATPPVNME | soluble |
| MLLLTRSPTAWHRLSQLKPPVLPGTLGGQALHLRSWLLSRQGPAETGGQGQPQGPGLRTRLLITGLFGAGLGGAWLALRAEKERLQQQKRTEALRQAAVGQGDFHLLDHRGRARCKADFRGQWVLMYFGFTHCPDICPDELEKLVQVVRQLEAEPGLPPVQPVFITVDPERDDVEAMARYVQDFHPRLLGLTGSTKQVAQASHSYRVYYNAGPKDEDQDYIVDHSIAIYLLNPDGLFTDYYGRSRSAEQISDSVRRHMAAFRSVLS | not soluble |
| GMENLGDRLEVVAELSLAPGNITLTPDGRLFLSLHQFYQPEMQVAELTQDGLIPFPPQSGNAIITFDTVLGIKSDGNGIVWMLDNGNQSKSVPKLVAWDTLNNQLSRVIYLPPPITLSNSFVNDLAVDLIHNFVYISDPAPDDKAALIRVDLQTGLAARVLQGYPGIAPEDIDLVIDGVPVQIGQPDGTVIRPHLGVNGIVLDAENEWLYLSPMHSTSMYRIKSADLSNLQLTDAELGSKIERYSEKPICDGISIDKDHNIYVGDLAHSAIGVITSADRAYKLLVTDEKLSWTDSFNFGSDGYLYFDCNQLHHSAPLNAGENISAPPYYIFRLKPLAAGIVGR | soluble |
| MAHPPRLNDDKPVIWTVSVTRLFELFRDISLEFDHLANITPIQLGFEKAVTYIRKKLANERCDAIIAAGSNGAYLKSRLSVPVILIKPSGYDVLQALAKAGKLTSSIGVVTYQETIPALVAFQKTFNLRLDQRSYITEEDARGQINELKANGTEAVVGAGLITDLAEEAGMTGIFIYSAATVRQAFSDALDMTRMSLRHNTHDATRNALRTRYVLGDMLGQSPQMEQVRQTILLYARSSAAVLIEGETGTGKELAAQAIHREYFARHDARQGKKSHPFVAVNCGAIAESLLEAELFGYEEGAFTGSRRGGRAGLFEIAHGGTLFLDEIGEMPLPLQTRLLRVLEEKEVTRVGGHQPVPVDVRVISATHCNLEEDMQQGRFRRDLFYRLSILRLQLPPLRERVADILPLAESFLKVSLAALSAPFSAALRQGLQASETVLLHYDWPGNIRELRNMMERLALFLSVEPTPDLTPQFMQLLLPELARESAKTPAPRLLTPQQALEKFNGDKTAAANYLGISRTTFWRRLKS | not soluble |
| MEKIVVIKYKDIKLKSPILIGGLPGIGNVGKIAADYIVEKLNMTKMYDIFSQYLPPQVFINDDSVVHLVRNSIYYKKMRGKHDLVILAGDFQGTTQEAQYELSYQVLQIAKEIGVSMIYTLGGYSIGKIVDKPRVLGAVTDKNLVADLEKNGVVFPKGEPGGGIVGSAGLILGLGMELFNMNGACLMGETSGYFADPKSAMEVLNVLQRQLGIKIDMSDIETRSKQIEQITGKMAEEFQNKQNKEDLGYFG | soluble |
| MGSDKIHHHHHHMIGAWCFLDHAGPVTFPAGNGLDVGPHPHIGLQTFTWMIEGTMMHTDSLGSKQLIRPKQVNLMTAGHGISHTEVAPDTETQMHAAQLWIALPDHKRNMDPKFEHYPDLPVVEKDGLEFTVLVGEYLETTSPVVVHTPLVGVDLIATQDTKTRIPLNPEFEYGFMALDGVAHVNGHELTADNMVVLDTGLNEIEIEVKKGNRVLLIGGEPFETPILLWWNFVARTMDDLKEAREQWVNHDVRFGEIPDYVGARLEAPVLPDQMRASK | not soluble |
| MKKIITLFGACALAFSMANADVNLYGPGGPHTALKDIANKYSEKTGVKVNVNFGPQATWFEKAKKDADILFGASDQSALAIASDFGKDFNVSKIKPLYFREAIILTQKGNPLKIKGLKDLANKKVRIVVPEGAGKSNTSGTGVWEDMIGRTQDIKTIQNFRNNIVAFVPNSGSARKLFAQDQADAWITWIDWSKSNPDIGTAVAIEKDLVVYRTFNVIAKEGASKETQDFIAYLSSKEAKEIFKKYGWREH | soluble |
